Assay results published in patent US20050221391A1, “Reagents and methods for identification of binding agents” (priority 2000, published 2005).
Entries after “also recorded” stand apart in the source; their conditions may differ.

Key:
[1] = biological target: tau231P (tau peptide phosphorylated at threonine 231) (Homo sapiens, UniProt P10636); experiment: ELISA binding to immobilized biotinylated tau231P phosphopeptide; settings: synthetic phosphopeptide
Protocol: To identify compounds which bind to tau peptides phosphorylated on threonine 231, a 96 well or […] ELISA plate is coated with Neuravidin in 20 mM K2HPO4/10 mM KH2PO4, 1 mM EDTA, 0.8% NaCl, 0.01% NAN3, pH 7.2, using a protein concentration of 5 micrograms per ml. All volumes in ELISA plates are 50 microliters, except for storage, where 200 microliters is added. After coating, plates are incubated with 10 mM tris base, 150 mM NaCl, pH 7.4 CIBS) containing 2% bovine serum albumin (BSA) and stored at 4 °C. Plates prepared this way are stable for several weeks.
A peptide derived from the protein tau was utilized, as shown below: • Biotin-KKVAVR(phospho)TPPKSPSS (SEQ D NO. 1) The peptide was diluted to a concentration of 0.5 micromolar in TBS containing 2% BSA, and 50 microliters per well were added followed by incubation at room temperature for one hour. Unbound peptide is washed off with TBS containing 0.5% Tween 20. […] Bound antibody is detected by incubation with a solution of goat anti-mouse Ig or goat anti-rabbit Ig coupled to horse radish peroxidase (HRP) (2 micrograms per ml in TBS containing 1% BSA) for one hour, and excess antibody is removed by washing with TBS containing 0.05% Tween 20. HRP activity is determined by addition of a substrate capable of generating a colored or fluorescent product (i.e., ABTS Substrate solution (BioRad Laboratories, Hercules, Calif.)). […]

[2] = biological target: APP668P (APP peptide phosphorylated at threonine 668) (Homo sapiens, UniProt P05067); experiment: ELISA binding to immobilized biotinylated APP668P phosphopeptide; settings: synthetic phosphopeptide
From the text: It is also possible to practice the method described above using a phosphopeptide corresponding to the sequence of APP. The sequence of one such peptide is shown below: • Biotin-VEVDAAV(phospho)TPEERHLS (SEQ ID NO. 2) In place of the TG3 antibody, a mAb specific for the phosphothreonine 668 of APP is used. The same antibody detection reagents and methods are used as described above. Examples of antibodies useful in this regard include but are not limited to GF1, GF3, GF5, GF7, GF12, GF25, and GF31. Polyclonal antibodies reactive against substantially similar phosphopeptides may also be useful.
Assays have been established in which the tau and APP phosphopeptides are biotinylated and immobilized on Neutravidin-coated 96 well ELISA plates. […] Concentrations of GF31 in the 5 nM range give a robust signal on such plates, and the binding is very sensitive to the presence of an antibody, TG3, which has a high affinity for the tau peptide (FIG. 5B). Duplicate assays are shown in FIG. 5B, illustrating the reproducibility of the assay.

[3] = test system: non-phosphorylated tau and APP peptides; experiment: Binding to the respective non-phosphorylated tau and APP peptides
[4] = biological target: tau peptide incorporating the phosphorylated threonine 231 site (tau231P), Biotin-KKVAVVR(phospho)TPPKSPSS; experiment: estimated from other studies, method not described

Pin1: prolyl isomerase which binds phosphorylated serine/threonine-proline bonds in proteins
binding / recognition of tau231P phosphopeptide [1]: high affinity; also recorded: binds
binding / recognition of APP668P phosphopeptide [2]: high affinity; also recorded: binds
binding to the respective non-phosphorylated peptides [3]: does not bind

monoclonal antibody TG3
Kd [4]: 25 nM
